Publication doi:10.1101/2020.11.17.387829v1
Like-named read-outs stand apart in the source and are kept apart here.

Substrate: O=[N+]([O-])c1ccc(O[C@@H]2O[C@H](CO)[C@@H](O)[C@H](O)[C@H]2O)cc1
Test: purified protein
[1] = average of two wild-type replicates (WT-1 2.4 mM, WT-2 5.3 ± 0.4 mM)
[2] = error exceeds the value, nearly inactive
[3] = poorly determined fit: large printed errors

B1: β-glucosidase B (BglB) (Paenibacillus polymyxa) (protein)
chain: MSENTFIFPATFMWGTSTSSYQIEGGTDEGGRTPSIWDTFCQIPGKVIGGDCGDVACDHFHHFKEDVQLMKQLGFLHYRFSVAWPRIMPAAGIINEEGLLFYEHLLDEIELAGLIPMLTLYHWDLPQWIEDEGGWTQRETIQHFKTYASVIMDRFGERINWWNTINEPYCASILGYGTGEHAPGHENWREAFTAAHHILMCHGIASNLHKEKGLTGKIGITLNMEHVDAASERPEDVAAAIRRDGFINRWFAEPLFNGKYPEDMVEWYGTYLNGLDFVQPGDMELIQQPGDFLGINYYTRSIIRSTNDASLLQVEQVHMEEPVTDMGWEIHPESFYKLLTRIEKDFSKGLPILITENGAAMRDELVNGQIEDTGRHGYIEEHLKACHRFIEEGGQLKGYFVWSFLDNFEWAWGYSKRFGIVHINYETQERTPKQSALWFKQMMAKNGF
Which results are given for B1?
Km [1]: 3.9 ± 0.3 mM; kcat [1]: 12.4 ± 0.158 s⁻¹

B2: β-glucosidase B (BglB) (Paenibacillus polymyxa; H181M) (protein)
chain: MSENTFIFPATFMWGTSTSSYQIEGGTDEGGRTPSIWDTFCQIPGKVIGGDCGDVACDHFHHFKEDVQLMKQLGFLHYRFSVAWPRIMPAAGIINEEGLLFYEHLLDEIELAGLIPMLTLYHWDLPQWIEDEGGWTQRETIQHFKTYASVIMDRFGERINWWNTINEPYCASILGYGTGEMAPGHENWREAFTAAHHILMCHGIASNLHKEKGLTGKIGITLNMEHVDAASERPEDVAAAIRRDGFINRWFAEPLFNGKYPEDMVEWYGTYLNGLDFVQPGDMELIQQPGDFLGINYYTRSIIRSTNDASLLQVEQVHMEEPVTDMGWEIHPESFYKLLTRIEKDFSKGLPILITENGAAMRDELVNGQIEDTGRHGYIEEHLKACHRFIEEGGQLKGYFVWSFLDNFEWAWGYSKRFGIVHINYETQERTPKQSALWFKQMMAKNGF
Which Km does the source give for B2 here?
The Km was 5.6 ± 1.9 mM.

What about the kcat of the same protein?
Its kcat is 11.98 ± 1.807 s⁻¹.

B3: β-glucosidase B (BglB) (Paenibacillus polymyxa; E409W) (protein)
chain: MSENTFIFPATFMWGTSTSSYQIEGGTDEGGRTPSIWDTFCQIPGKVIGGDCGDVACDHFHHFKEDVQLMKQLGFLHYRFSVAWPRIMPAAGIINEEGLLFYEHLLDEIELAGLIPMLTLYHWDLPQWIEDEGGWTQRETIQHFKTYASVIMDRFGERINWWNTINEPYCASILGYGTGEHAPGHENWREAFTAAHHILMCHGIASNLHKEKGLTGKIGITLNMEHVDAASERPEDVAAAIRRDGFINRWFAEPLFNGKYPEDMVEWYGTYLNGLDFVQPGDMELIQQPGDFLGINYYTRSIIRSTNDASLLQVEQVHMEEPVTDMGWEIHPESFYKLLTRIEKDFSKGLPILITENGAAMRDELVNGQIEDTGRHGYIEEHLKACHRFIEEGGQLKGYFVWSFLDNFWWAWGYSKRFGIVHINYETQERTPKQSALWFKQMMAKNGF
For B3, which Km [2] is on record?
The Km was 2.5 ± 3.1 mM.

And the kcat [2]?
Its kcat is 0.0017 ± 0.0017 s⁻¹.

B4: β-glucosidase B (BglB) (Paenibacillus polymyxa; L174M) (protein)
chain: MSENTFIFPATFMWGTSTSSYQIEGGTDEGGRTPSIWDTFCQIPGKVIGGDCGDVACDHFHHFKEDVQLMKQLGFLHYRFSVAWPRIMPAAGIINEEGLLFYEHLLDEIELAGLIPMLTLYHWDLPQWIEDEGGWTQRETIQHFKTYASVIMDRFGERINWWNTINEPYCASIMGYGTGEHAPGHENWREAFTAAHHILMCHGIASNLHKEKGLTGKIGITLNMEHVDAASERPEDVAAAIRRDGFINRWFAEPLFNGKYPEDMVEWYGTYLNGLDFVQPGDMELIQQPGDFLGINYYTRSIIRSTNDASLLQVEQVHMEEPVTDMGWEIHPESFYKLLTRIEKDFSKGLPILITENGAAMRDELVNGQIEDTGRHGYIEEHLKACHRFIEEGGQLKGYFVWSFLDNFEWAWGYSKRFGIVHINYETQERTPKQSALWFKQMMAKNGF
What does the source list for B4?
Km: 4.3 ± 0.3 mM; kcat: 14.79 ± 0.405 s⁻¹

B5: β-glucosidase B (BglB) (Paenibacillus polymyxa; F418M) (protein)
chain: MSENTFIFPATFMWGTSTSSYQIEGGTDEGGRTPSIWDTFCQIPGKVIGGDCGDVACDHFHHFKEDVQLMKQLGFLHYRFSVAWPRIMPAAGIINEEGLLFYEHLLDEIELAGLIPMLTLYHWDLPQWIEDEGGWTQRETIQHFKTYASVIMDRFGERINWWNTINEPYCASILGYGTGEHAPGHENWREAFTAAHHILMCHGIASNLHKEKGLTGKIGITLNMEHVDAASERPEDVAAAIRRDGFINRWFAEPLFNGKYPEDMVEWYGTYLNGLDFVQPGDMELIQQPGDFLGINYYTRSIIRSTNDASLLQVEQVHMEEPVTDMGWEIHPESFYKLLTRIEKDFSKGLPILITENGAAMRDELVNGQIEDTGRHGYIEEHLKACHRFIEEGGQLKGYFVWSFLDNFEWAWGYSKRMGIVHINYETQERTPKQSALWFKQMMAKNGF
What does the source list for B5?
Km [3]: 29.6 ± 20.5 mM; kcat [3]: 0.37 ± 0.572 s⁻¹

B6: β-glucosidase B (BglB) (Paenibacillus polymyxa; M224L) (protein)
chain: MSENTFIFPATFMWGTSTSSYQIEGGTDEGGRTPSIWDTFCQIPGKVIGGDCGDVACDHFHHFKEDVQLMKQLGFLHYRFSVAWPRIMPAAGIINEEGLLFYEHLLDEIELAGLIPMLTLYHWDLPQWIEDEGGWTQRETIQHFKTYASVIMDRFGERINWWNTINEPYCASILGYGTGEHAPGHENWREAFTAAHHILMCHGIASNLHKEKGLTGKIGITLNLEHVDAASERPEDVAAAIRRDGFINRWFAEPLFNGKYPEDMVEWYGTYLNGLDFVQPGDMELIQQPGDFLGINYYTRSIIRSTNDASLLQVEQVHMEEPVTDMGWEIHPESFYKLLTRIEKDFSKGLPILITENGAAMRDELVNGQIEDTGRHGYIEEHLKACHRFIEEGGQLKGYFVWSFLDNFEWAWGYSKRFGIVHINYETQERTPKQSALWFKQMMAKNGF
With B6 as the protein, how does the Km read?
The Km was 4.2 mM.

And the kcat?
Its kcat is 10.51 s⁻¹.

B7: β-glucosidase B (BglB) (Paenibacillus polymyxa; N163E) (protein)
chain: MSENTFIFPATFMWGTSTSSYQIEGGTDEGGRTPSIWDTFCQIPGKVIGGDCGDVACDHFHHFKEDVQLMKQLGFLHYRFSVAWPRIMPAAGIINEEGLLFYEHLLDEIELAGLIPMLTLYHWDLPQWIEDEGGWTQRETIQHFKTYASVIMDRFGERINWWETINEPYCASILGYGTGEHAPGHENWREAFTAAHHILMCHGIASNLHKEKGLTGKIGITLNMEHVDAASERPEDVAAAIRRDGFINRWFAEPLFNGKYPEDMVEWYGTYLNGLDFVQPGDMELIQQPGDFLGINYYTRSIIRSTNDASLLQVEQVHMEEPVTDMGWEIHPESFYKLLTRIEKDFSKGLPILITENGAAMRDELVNGQIEDTGRHGYIEEHLKACHRFIEEGGQLKGYFVWSFLDNFEWAWGYSKRFGIVHINYETQERTPKQSALWFKQMMAKNGF
Which results are given for B7?
Km (error exceeds the value): 21.4 ± 52.4 mM; kcat (error exceeds the value): 1.02 ± 0.483 s⁻¹
